Test results reported in patent publication US20250361288A1 (Gilead, published 2025).

Experiments:
Assay in all cases: phage ELISA
[1] = biological target: T1, human LTβR extracellular domain fused with an Fc fragment at the C-terminus (human, UniProt P36941 31-227)
T1 construct: extracellular domain; Bought; also called hLTβR; not shown: Fc fragment at the C-terminus
Procedure: (§1) Individual clones from the fourth selection round were grown in 96-well deep well blocks in 100 μl of 2YT broth supplemented with 50 μg/ml ampicillin at 37° C. and 220 rpm for 5 hours. Then, 5 μl of helper phages were added to each well and incubated at 37° C. for 30 minutes. After centrifuging at 3,000 rpm for 10 minutes, the cells were resuspended and grown overnight in 150 μl/well of 2YT broth supplemented with 50 μg/ml ampicillin and 50 μg/ml kanamycin.
(§2) For the ELISA screening, 96-well ELISA plates were coated with target proteins (1 μg/ml in PBS) at 4° C. overnight and then blocked with 2% BSA for 2 hours at room temperature. The supernatant containing phage particles was added to the plates and incubated at room temperature for 1 hour. After incubation, the plates were washed five times with PBST. HRP (horseradish peroxidase) conjugated anti-M13 antibody (Sino Biological, China) was added to the wells and incubated at room temperature for 1 hour. Following another round of washing five times with PBST, 50 μl of TMB (3,3′, 5,5″-tetramethylbenzidine, #34029, ThemoFisher) was added to each well. After 5 minutes, the reaction was stopped by adding 50 μl stop solution (#C1058, Solarbio, China). The absorbance at 450 nm (OD450) was measured using a plate reader (SpectraMax M5, Molecule Devices). Wells coated with BSA were used as negative controls. Phage clones with an ELISA score ratio (target/BSA)>3 were considered positive clones.

[2] = biological target: T2, mouse LTβR extracellular domain fused with an Fc fragment at the C-terminus (mouse, UniProt P50284 31-223)
T2 construct: extracellular domain; Bought; also called mLTβR; not shown: Fc fragment at the C-terminus
T2 sequence (P50284 31-223): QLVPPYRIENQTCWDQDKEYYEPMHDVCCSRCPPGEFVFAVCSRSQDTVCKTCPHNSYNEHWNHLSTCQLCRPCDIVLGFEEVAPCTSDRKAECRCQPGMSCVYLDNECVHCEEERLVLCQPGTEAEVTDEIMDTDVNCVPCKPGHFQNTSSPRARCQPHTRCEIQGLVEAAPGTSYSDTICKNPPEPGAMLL
Procedure: as §1, §2

[3] = biological target: T3, human HVEM extracellular domain fused with an Fc fragment at the C-terminus (human, UniProt Q92956 39-202)
T3 construct: extracellular domain; Bought; also called hHVEM; not shown: Fc fragment at the C-terminus
T3 sequence (looked up): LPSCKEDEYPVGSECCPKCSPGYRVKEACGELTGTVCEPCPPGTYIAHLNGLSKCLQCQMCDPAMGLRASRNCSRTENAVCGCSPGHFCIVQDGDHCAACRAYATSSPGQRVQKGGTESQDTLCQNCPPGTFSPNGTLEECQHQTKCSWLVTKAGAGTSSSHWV
Procedure: as §1, §2

Measured: binding result

T1 sequence (P36941 31-227): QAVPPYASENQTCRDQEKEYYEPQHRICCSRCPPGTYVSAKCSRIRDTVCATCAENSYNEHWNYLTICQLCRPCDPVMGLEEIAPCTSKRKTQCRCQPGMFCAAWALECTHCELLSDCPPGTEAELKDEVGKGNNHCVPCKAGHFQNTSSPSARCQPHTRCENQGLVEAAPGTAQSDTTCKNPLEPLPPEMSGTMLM

B1: LIGHT-53 (ligand)
chain: DGPAGSWEQLIQERRSHEVNPAAHLTGANSSLTGSGGPLLWETNLGLAFLRGLSYHDGALVVTKAGYYYIYSKVQLGGVGCPLGLASTITHGLYKRTPRYPEELELLVSQQSPCGRATSSSRVWWDSSFLGGVVHLEAGEKVVVRVSDERLVRTRDGTRSYFGAFMV
notes: Printed mutations: Q117N, L220S, L227T; Soluble protein carries an N-terminal His tag
binds: all assays above

B2: LIGHT-63 (ligand)
chain: DGPAGSWEQLIQERRSHEVNPAAHLTGANSSLTGSGGPLLWETQLGLAFLRGLSYHDGALVVTKAGYYYIYSKVQLGGVGCPLGLASGITHGLYKRTPRYPEELELLVSQQSPCGRATSSSRVWWDSSFLGGVVHLEAGEKVVVRVSDERLVRTRDGTRSYFGAFMV
notes: Printed mutations: T161G, L220S, L227T; Soluble protein carries an N-terminal His tag
binds: all assays above

B3: LIGHT-68 (ligand)
chain: DGPAGSWEQLIQERRSHEVNPAAHLTGANSSLTGSGGPLLWETQLGLAFLRGLSYHDGALVVTKAGYYYIYSKVQLGGVGCPLGLAGGITHGLYKRTPRYPEELELLVSQQSPCGRATSSSRVWWDSSFLGGVVHLEAGEKVVVRVSDERLVRTRDGTRSYFGAFMV
notes: Printed mutations: S160G, T161G, L220S, L227T; Soluble protein carries an N-terminal His tag
binds: all assays above

B4: LIGHT-73 (ligand)
chain: DGPAGSWEQLIQERRSHEVNPAAHLTGANSSLTGSGGPLLWETELGLAFLRGLSYHDGALVVTKAGYYYIYSKVQLGGVGCPLGLASGITHGLYKRTPRYPEELELLVSQQSPCGRATSSSRVWWDSSFLGGVVHLEAGEKVVVRVSDERLVRTRDGTRSYFGAFMV
notes: Printed mutations: Q117E, T161G, L220S, L227T; Soluble protein carries an N-terminal His tag
binds: all assays above

B5: LIGHT-70 (ligand)
chain: DGPAGSWEQLIQERRSHEVNPAAHLTGANSSLTGSGGPLLWETNLGLAFLRGLSYHDGALVVTKAGYYYIYSKVQLGGVGCPLGLASGITHGLYKRTPRYPEELELLVSQQSPCGRATSSSRVWWDSSFLGGVVHLEAGEKVVVRVSDERLVRTRDGTRSYFGAFMV
notes: Printed mutations: Q117N, T161G, L220S, L227T; Soluble protein carries an N-terminal His tag
binds: all assays above

B6: LIGHT-69 (ligand)
chain: DGPAGSWEQLIQERRSHEVNPAAHLTGANSSLTGSGGPLLWETQLGLAFLRGLSYHDGALVVTKAGYYYIYSKVQLGGVGCPLGLAGPITHGLYKRTPRYPEELELLVSQQSPCGRATSSSRVWWDSSFLGGVVHLEAGEKVVVRVSDERLVRTRDGTRSYFGAFMV
notes: Printed mutations: S160G, T161P, L220S, L227T; Soluble protein carries an N-terminal His tag
binds: all assays above

B7: LIGHT-64 (ligand)
chain: DGPAGSWEQLIQERRSHEVNPAAHLTGANSSLTGSGGPLLWETQLGLAFLRGLSYHDGALVVTKAGYYYIYSKVQLGGVGCPLGLASPITHGLYKRTPRYPEELELLVSQQSPCGRATSSSRVWWDSSFLGGVVHLEAGEKVVVRVSDERLVRTRDGTRSYFGAFMV
notes: Printed mutations: T161P, L220S, L227T; Soluble protein carries an N-terminal His tag
binds: all assays above

B8: LIGHT-59 (ligand)
chain: DGPAGSWEQLIQERRSHEVNPAAHLTGANSSLTGSGGPLLWETQLGLAFLRGLSYHDGALVVTKAGYYYIYSKVQLGGVGCPLGLAGPITHGLYKRTPRYPEELELLVSQQSPCGRATSSSRVWWDSSFLGGVVHLEAGEKVVVRVSDERLVRLRDGTRSYFGAFMV
notes: Printed mutations: S160G, T161P, L220S; Soluble protein carries an N-terminal His tag
binds: all assays above

B9: LIGHT-56 (ligand)
chain: DGPAGSWEQLIQERRSHEVNPAAHLTGANSSLTGSGGPLLWETELGLAFLRGLSYHDGALVVTKAGYYYIYSKVQLGGVGCPLGLASTITHGLYKRTPRYPEELELLVSQQSPCGRATSSSRVWWDSSFLGGVVHLEAGEKVVVRVTDERLVRTRDGTRSYFGAFMV
notes: Printed mutations: Q117E, L220T, L227T; Soluble protein carries an N-terminal His tag
binds: all assays above

B10: LIGHT-66 (ligand)
chain: DGPAGSWEQLIQERRSHEVNPAAHLTGANSSLTGSGGPLLWETQLGLAFLRGLSYHDGALVVTKAGYYYIYSKVQLGGVGCPLGLAGTITHGLYKRTPRYPEELELLVSQQSPCGRATSSSRVWWDSSFLGGVVHLEAGEKVVVRVTDERLVRTRDGTRSYFGAFMV
notes: Printed mutations: S160G, L220T, L227T; Soluble protein carries an N-terminal His tag
binds: all assays above

B11: LIGHT-71 (ligand)
chain: DGPAGSWEQLIQERRSHEVNPAAHLTGANSSLTGSGGPLLWETNLGLAFLRGLSYHDGALVVTKAGYYYIYSKVQLGGVGCPLGLASPITHGLYKRTPRYPEELELLVSQQSPCGRATSSSRVWWDSSFLGGVVHLEAGEKVVVRVSDERLVRTRDGTRSYFGAFMV
notes: Printed mutations: Q117N, T161P, L220S, L227T; Soluble protein carries an N-terminal His tag
binds: all assays above

B12: LIGHT-67 (ligand)
chain: DGPAGSWEQLIQERRSHEVNPAAHLTGANSSLTGSGGPLLWETQLGLAFLRGLSYHDGALVVTKAGYYYIYSKVQLGGVGCPLGLASSITHGLYKRTPRYPEELELLVSQQSPCGRATSSSRVWWDSSFLGGVVHLEAGEKVVVRVSDERLVRTRDGTRSYFGAFMV
notes: Printed mutations: T161S, L220S, L227T; Soluble protein carries an N-terminal His tag
binds: all assays above

B13: LIGHT-55 (ligand)
chain: DGPAGSWEQLIQERRSHEVNPAAHLTGANSSLTGSGGPLLWETNLGLAFLRGLSYHDGALVVTKAGYYYIYSKVQLGGVGCPLGLASTITHGLYKRTPRYPEELELLVSQQSPCGRATSSSRVWWDSSFLGGVVHLEAGEKVVVRVTDERLVRTRDGTRSYFGAFMV
notes: Printed mutations: Q117N, L220T, L227T; Soluble protein carries an N-terminal His tag
binds: all assays above

B14: LIGHT-54 (ligand)
chain: DGPAGSWEQLIQERRSHEVNPAAHLTGANSSLTGSGGPLLWETELGLAFLRGLSYHDGALVVTKAGYYYIYSKVQLGGVGCPLGLASTITHGLYKRTPRYPEELELLVSQQSPCGRATSSSRVWWDSSFLGGVVHLEAGEKVVVRVSDERLVRTRDGTRSYFGAFMV
notes: Printed mutations: Q117E, L220S, L227T; Soluble protein carries an N-terminal His tag
binds: all assays above

B15: LIGHT-65 (ligand)
chain: DGPAGSWEQLIQERRSHEVNPAAHLTGANSSLTGSGGPLLWETQLGLAFLRGLSYHDGALVVTKAGYYYIYSKVQLGGVGCPLGLAGTITHGLYKRTPRYPEELELLVSQQSPCGRATSSSRVWWDSSFLGGVVHLEAGEKVVVRVSDERLVRTRDGTRSYFGAFMV
notes: Printed mutations: S160G, L220S, L227T; Soluble protein carries an N-terminal His tag
binds: all assays above

B16: LIGHT-72 (ligand)
chain: DGPAGSWEQLIQERRSHEVNPAAHLTGANSSLTGSGGPLLWETNLGLAFLRGLSYHDGALVVTKAGYYYIYSKVQLGGVGCPLGLAGTITHGLYKRTPRYPEELELLVSQQSPCGRATSSSRVWWDSSFLGGVVHLEAGEKVVVRVSDERLVRTRDGTRSYFGAFMV
notes: Printed mutations: Q117N, S160G, L220S, L227T; Soluble protein carries an N-terminal His tag
binds: all assays above

B17: LIGHT-57 (ligand)
chain: DGPAGSWEQLIQERRSHEVNPAAHLTGANSSLTGSGGPLLWETQLGLAFLRGLSYHDGALVVTKAGYYYIYSKVQLGGVGCPLGLASTITHGLYKRTPRYPEELELLVSQQSPCGRATSSSRVWWDSSFLGGVVHLEAGEKVVVRVSDERLVRTRDGTRSYFGAFMV
notes: Printed mutations: L220S, L227T; Soluble protein carries an N-terminal His tag
binds: all assays above

B18: LIGHT-62 (ligand)
chain: DGPAGSWEQLIQERRSHEVNPAAHLTGANSSLTGSGGPLLWETQLGLAFLRGLSYHDGALVVTKAGYYYIYSKVQLGGVGCPLGLAGGITHGLYKRTPRYPEELELLVSQQSPCGRATSSSRVWWDSSFLGGVVHLEAGEKVVVRVTDERLVRLRDGTRSYFGAFMV
notes: Printed mutations: S160G, T161G, L220T; Soluble protein carries an N-terminal His tag
binds: all assays above
